Test system: T1, cyclic peptide CDMWERVSRC
T1 sequence: CDMWERVSRC

Chain of Native seprase isolated from LOX cells (chain): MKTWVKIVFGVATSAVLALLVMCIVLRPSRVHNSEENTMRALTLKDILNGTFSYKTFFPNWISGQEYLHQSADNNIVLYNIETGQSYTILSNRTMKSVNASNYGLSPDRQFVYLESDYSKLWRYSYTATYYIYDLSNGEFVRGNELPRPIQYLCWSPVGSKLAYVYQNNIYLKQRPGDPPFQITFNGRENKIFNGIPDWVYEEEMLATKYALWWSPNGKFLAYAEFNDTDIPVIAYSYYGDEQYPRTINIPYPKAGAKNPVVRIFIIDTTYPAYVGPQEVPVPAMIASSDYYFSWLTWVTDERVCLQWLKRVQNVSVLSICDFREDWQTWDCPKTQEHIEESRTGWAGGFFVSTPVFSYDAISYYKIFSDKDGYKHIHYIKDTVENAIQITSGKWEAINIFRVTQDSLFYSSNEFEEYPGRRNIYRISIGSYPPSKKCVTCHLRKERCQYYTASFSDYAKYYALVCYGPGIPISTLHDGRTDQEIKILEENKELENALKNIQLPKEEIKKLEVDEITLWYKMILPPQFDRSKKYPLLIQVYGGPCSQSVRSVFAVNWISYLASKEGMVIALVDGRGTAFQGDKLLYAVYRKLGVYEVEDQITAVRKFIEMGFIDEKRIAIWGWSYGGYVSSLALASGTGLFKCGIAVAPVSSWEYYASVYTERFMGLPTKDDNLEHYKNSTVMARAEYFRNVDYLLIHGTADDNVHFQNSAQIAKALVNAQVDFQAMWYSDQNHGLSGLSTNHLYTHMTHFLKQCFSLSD

Question: Native seprase isolated from LOX cells was tested. Which “increase of the catalytic Km for Gly-Pro-pNA (Lineweaver-Burke analysis)” value did it give?
Answer: When the concentration of CDMWERVSRC [SEQ ID NO: 3] was 62.5 mM, the catalytic Km value increased by 5 times (from 0.7 mM to 3.5 mM)

— patent publication US20060172938
